{
  "source": "paper PMC8639918",
  "about": "“Mechanism of phosphate sensing and signaling revealed by rice SPX1-PHR2 complex structure” (Nature Communications, 2021)",
  "binders": {"B1": {"name": "Arabidopsis PHR1^227–358 (MYB and CC domains only) (domain or fragment)", "chain": "not shown", "notes": "The methods describe only SPX1 and PHR2 constructs; also called AtPHR1"}, "B2": {"name": "PHR2^230–426 (MYB and CC domain-containing fragment of rice PHR2) (domain or fragment)", "chain": "not shown", "notes": "Alone in solution a mixture of dimer and tetramer; one copy in the complex with SPX1; not shown: His10, N-terminal, cleaved; MsyB, N-terminal, cleaved"}, "B3": {"name": "PHR2^(230–426 L348A/L358A/I362A) (domain or fragment)", "chain": "not shown", "notes": "also called PHR2^3M; PHR2 monomeric mutant; not shown: His10, N-terminal, cleaved; MsyB, N-terminal, cleaved"}, "B4": {"name": "PHR2^248–380 (domain or fragment)", "chain": "not shown", "notes": "PHR2 (OsPHR2), rice, residues 248-380; also called PHR2 (residues 248–380); not shown: His10, N-terminal, cleaved; MsyB, N-terminal, cleaved"}, "B5": {"name": "PHR2^248–380 E353A (domain or fragment)", "chain": "not shown", "notes": "PHR2 (OsPHR2), rice, residues 248-380; not shown: His10, N-terminal, cleaved; MsyB, N-terminal, cleaved"}, "B6": {"name": "PHR2^248–380 R248A (domain or fragment)", "chain": "not shown", "notes": "PHR2 (OsPHR2), rice, residues 248-380; also called PHR2 R248 mutant; not shown: His10, N-terminal, cleaved; MsyB, N-terminal, cleaved"}, "B7": {"name": "PHR2^248–380 E363A (domain or fragment)", "chain": "not shown", "notes": "as for B5"}, "B8": {"name": "PHR2^248–380 E257A (domain or fragment)", "chain": "not shown", "notes": "PHR2 (OsPHR2), rice, residues 248-380; also called PHR2 E257 mutant; not shown: His10, N-terminal, cleaved; MsyB, N-terminal, cleaved"}},
  "key": {"[1]": {"biological_target": "the molecule itself", "experiment": "SEC-MALS; Superdex 200 Increase 10/300 GL, buffer C (20 mM Tris/HCl pH 8.0, 200 mM NaCl, 1 mM TCEP) without InsP6, 2–3 mg/ml, 4 °C"}, "[2]": {"biological_target": "T1, SPX1^1–259 (C-terminally truncated fragment of rice SPX1) (rice, UniProt Q69XJ0 1-259)", "T1 construct": "also called OsSPX1; not shown: His10, N-terminal, cleaved; MsyB, N-terminal, cleaved", "T1 sequence (looked up)": "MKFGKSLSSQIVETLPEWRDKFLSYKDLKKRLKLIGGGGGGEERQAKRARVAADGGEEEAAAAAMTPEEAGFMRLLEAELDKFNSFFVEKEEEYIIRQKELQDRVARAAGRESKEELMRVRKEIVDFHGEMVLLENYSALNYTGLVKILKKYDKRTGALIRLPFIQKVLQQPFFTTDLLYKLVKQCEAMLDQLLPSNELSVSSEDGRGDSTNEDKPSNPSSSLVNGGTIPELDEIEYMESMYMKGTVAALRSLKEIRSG", "experiment": "SEC-MALS; Superdex 200 Increase 10/300 GL, buffer C (20 mM Tris/HCl pH 8.0, 200 mM NaCl, 1 mM TCEP) with 1 mM InsP6, 2–3 mg/ml, 4 °C", "conditions": "both partners purified"}, "[3]": {"biological_target": "T1, SPX1^1–259 (C-terminally truncated …)", "experiment": "ITC; PHR2^3M at 120 μM injected into SPX1^1–259 at 10 μM, in presence or absence of 1 mM InsP6; 25 °C; buffer F (20 mM HEPES/NaOH pH 7.5, 200 mM NaCl, 2 mM β-mercaptoethanol)", "conditions": "both partners purified"}, "SPX1^1–198 Y180A": {"biological_target": "T2, SPX1^1–198 Y180A (rice, UniProt Q69XJ0 1-198, Y180A)", "T2 construct": "SPX1 (OsSPX1), rice, residues 1-198; not shown: His10, N-terminal, cleaved; MsyB, N-terminal, cleaved", "T2 sequence (looked up)": "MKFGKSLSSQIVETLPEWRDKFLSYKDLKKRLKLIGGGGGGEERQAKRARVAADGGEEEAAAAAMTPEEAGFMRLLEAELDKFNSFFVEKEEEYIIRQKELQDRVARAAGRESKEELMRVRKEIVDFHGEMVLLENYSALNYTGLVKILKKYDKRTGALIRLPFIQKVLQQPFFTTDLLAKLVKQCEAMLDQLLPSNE", "experiment": "SEC; gel filtration of SPX1^1–198 and PHR2^248–380 and their mutants, buffer C (20 mM Tris/HCl pH 8.0, 200 mM NaCl, 1 mM TCEP) with or without InsP6 as the methods put it; samples incubated at 4 °C for 12 h (Figs. 2c, 5b, Supplementary Fig. 3a–d)", "conditions": "both partners purified"}, "SPX1^1–198 E135A": {"biological_target": "T3, SPX1^1–198 E135A (rice, UniProt Q69XJ0 1-198, E135A)", "T3 construct": "SPX1 (OsSPX1), rice, residues 1-198; not shown: His10, N-terminal, cleaved; MsyB, N-terminal, cleaved", "T3 sequence (looked up)": "T2 sequence (looked up) with E135A, A180Y", "experiment": "SEC; gel filtration of SPX1^1–198 and PHR2^248–380 and their mutants, buffer C (20 mM Tris/HCl pH 8.0, 200 mM NaCl, 1 mM TCEP) with or without InsP6 as the methods put it; samples incubated at 4 °C for 12 h (Figs. 2c, 5b, Supplementary Fig. 3a–d)", "conditions": "both partners purified"}, "SPX1^1–198": {"biological_target": "T4, SPX1^1–198 (rice, UniProt Q69XJ0 1-198)", "T4 construct": "SPX1 (OsSPX1), rice, residues 1-198; also called SPX1 (residues 1–198); not shown: His10, N-terminal, cleaved; MsyB, N-terminal, cleaved", "T4 sequence (looked up)": "T2 sequence (looked up) with A180Y", "experiment": "SEC; gel filtration of SPX1^1–198 and PHR2^248–380 and their mutants, buffer C (20 mM Tris/HCl pH 8.0, 200 mM NaCl, 1 mM TCEP) with or without InsP6 as the methods put it; samples incubated at 4 °C for 12 h (Figs. 2c, 5b, Supplementary Fig. 3a–d)", "conditions": "both partners purified"}},
  "note": "Substitutions are numbered along the chain they refer to. Names may count otherwise. “And” between values parts separate entries of the source, which are not always exact repeats. Identical values can stand only once.",
  "data": [
    {"binder": "B1", "values": [
      {"measurement": "stoichiometry N", "setting": "[1]", "result": 2}
    ]},
    {"binder": "B2", "values": [
      {"measurement": "stoichiometry N", "setting": "[2]", "result": 1},
      {"measurement": "stoichiometry N", "setting": "[1]", "result": "2 and 4"}
    ]},
    {"binder": "B3", "values": [
      {"measurement": "Kd", "setting": "[3]", "result": "~170", "unit": "nM"}
    ]},
    {"binder": "B4", "values": [
      {"measurement": "binding result", "setting": "SPX1^1–198 Y180A", "result": "binds"},
      {"measurement": "binding result", "setting": "SPX1^1–198 E135A", "result": "binds"},
      {"measurement": "binding result", "setting": "SPX1^1–198", "result": "binds"}
    ]},
    {"binder": "B5", "values": [
      {"measurement": "binding result", "setting": "SPX1^1–198", "result": "binds"}
    ]},
    {"binder": "B6", "values": [
      {"measurement": "binding result", "setting": "SPX1^1–198", "result": "binds"}
    ]},
    {"binder": "B7", "values": [
      {"measurement": "binding result", "setting": "SPX1^1–198", "result": "binds"}
    ]},
    {"binder": "B8", "values": [
      {"measurement": "binding result", "setting": "SPX1^1–198", "result": "binds"}
    ]}
  ]
}
